{"source": "the nanobody polyreactivity screen of Harvey et al. (2022)"}
{"assay": "yeast display, Sf9 membrane polyspecificity reagent, FACS + sequencing; frameworks hold sequencing errors", "method_in_brief": "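In a synthetic yeast display library (Saccharomyces cerevisiae BJ5465), nanobody expression was induced with galactose for 36–48 hours. FACS gates were set low and high (top ~1%) using anti-HA fluorescence for expression and streptavidin fluorescence for binding of the Sf9 membrane reagent. Each polyreactivity label is drawn from the gate of origin.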"}
{"sequence": "QVQLVESGGGLVQAGGSLRLSCAASGFIFAYYAMGWYRQAPGKERELVAAITNSGGSTYYADSVKGRFTISRDNAKNTVYLQMNSLKPEDTAVYYCNALHRIRYTPSSRYDYWGQGTQVTVSS", "polyreactivity (PSR sort gate)": "low polyreactivity"}
{"sequence": "QVQLVESGGGLVQAGGSLRLSCAASGFIFAYYAMGWYRQEPGKERELVAAISSSGSTNYADSVKGRFTISRDNAKNTVYLQMNSLKPEDTAVYYCAADRVGGTPQAYVPSQFDYWGQGTQVTVSS", "polyreactivity (PSR sort gate)": "low polyreactivity"}
{"sequence": "QVQLVESGGGLVQAGGSLRLSCAASGFIFDAYAMGWYRQAPGKERELVAAIDSGGSTDYADSVKGRFTISRDNAKNTVYLQMNSLKPEDTAVYYCNAERAYLWWYNFDYWGQGTQVTVSS", "polyreactivity (PSR sort gate)": "low polyreactivity"}
{"sequence": "QVQLVESGGGLVQAGGSLRLSCAASGFIFDDNAMGWYRQAPGKERELVAAITSGGGSTYYADSVKGRFTISRDNAKNTVYLQMNSLIPEDTAVYYCNAVPSQHDEFDYWGQGTHVTVSS", "polyreactivity (PSR sort gate)": "low polyreactivity"}
{"sequence": "QVQLVESGGGLVQAGGSLRLSCAASGFIFDDYAMGWNRQAPGKERELVAAITDSGDGTDYADSVKGRFTISRDNAKNTVYLQMNSLKPEDTAVYYCAAGLWYSYDYWGQGTQVTVSS", "polyreactivity (PSR sort gate)": "high polyreactivity"}
{"sequence": "QVQLVESGGGLVQAGGSLRLSCAASGFIFDFYAMGWYRQAPGKERELVATINSSGTTNYADSVKGRFTISRDNAKNTVYLQMNSLKPEDTAVYYCATVEYLGHYTYDYWGQGTQVTVSS", "polyreactivity (PSR sort gate)": "low polyreactivity"}
{"sequence": "QVQLVESGGGLVQAGGSLRLSCAASGFIFDKNAMGWYRQAPGKERELVAAISSGGGSTDYADAVKGRFTISRDNAKNPDYLHMNSLKPEDTAVYYCARYWDQLQQYVISFGRYGMDYWGQGTQVTVSS", "polyreactivity (PSR sort gate)": "high polyreactivity"}
{"sequence": "QVQLVESGGGLVQAGGSLRLSCAASGFIFDNNAMGWYRQAPGKERELVADISESGGSTYYADSVKGRFTISRDNAKNTVYLQMNSLKPEDTAVYYCNADIESWYCEFDYWGQGTQVTVSS", "polyreactivity (PSR sort gate)": "low polyreactivity"}
{"sequence": "QVQLVESGGGLVQAGGSLRLSCAASGFIFDRYAMGWYRQAPGKERELVAAISSGGSTYYADSVKGRFTISRDNAKNTVYLQMNSLKPEDTAVYYCAAESWLNFIYEYDYWGQGTQVTVSS", "polyreactivity (PSR sort gate)": "low polyreactivity"}
{"sequence": "QVQLVESGGGLVQAGGSLRLSCAASGFIFDRYAMGWYRQAPGKERELVAAISWTGGSTYYADSVKGRFTISRDNAKNTVYLQMNSLKPEDTAVYYCAVEYSLVYWSGVVDLGYWGQGTQVTVSS", "polyreactivity (PSR sort gate)": "high polyreactivity"}
{"sequence": "QVQLVESGGGLVQAGGSLRLSCAASGFIFDTYAMGWYRQAHGKERELVAAIRWSGGRTYYGDSVKGRFTISRDNAKNTVYLQMNSMKPEDTAVYYCNVVVRYPYAYDYWGQGTQVTVSS", "polyreactivity (PSR sort gate)": "high polyreactivity"}
{"sequence": "QVQLVESGGGLVQAGGSLRLSCAASGFIFDWYAMGWYRQAPGKERELVAAINESGGDTYYADSVKGRFTISRDNAKNTVYLQMNSLKPEDTAVYYCAARTYHRYDYWGQGTQVTVSS", "polyreactivity (PSR sort gate)": "high polyreactivity"}
{"sequence": "QVQLVESGGGLVQAGGSLRLSCAASGFIFDYNAMVWYRQAPGKERELVAAISISGGGTYYADSVKGRFTISRDNAKNTVYLQMNSLKPEDTAVYYCATAGRYDAYDYWGQGTQVTVSS", "polyreactivity (PSR sort gate)": "low polyreactivity"}
{"sequence": "QVQLVESGGGLVQAGGSLRLSCAASGFIFDYYAMGWYRQAPGKERELVAAIDDSGGSTYYADSVKGRFTISRDNAKNTVYLQMNSLKPEDTAVYYCNAGVGWHSYYSNYDYWGQGTQVTVSS", "polyreactivity (PSR sort gate)": "low polyreactivity"}
{"sequence": "QVQLVESGGGLVQAGGSLRLSCAASGFIFDYYAMGWYRQAPGKERELVAAITRDGGGTYYADSVKGRFTISRDNEKNSVYLQMNSLKPEDTAVYYCAAETYWYYRANYDYWGQGTQVTVSS", "polyreactivity (PSR sort gate)": "high polyreactivity"}
{"sequence": "QVQLVESGGGLVQAGGSLRLSCAASGFIFDYYAMGWYRQAPGKERELVAAITSRSGSTYYADSVKGRFTISRDNAKNTVYLQMNSLKPEDTAVYYCSRRFKYGSTAWRFYYWGQGTQVTVSS", "polyreactivity (PSR sort gate)": "high polyreactivity"}
{"sequence": "QVQLVESGGGLVQAGGSLRLSCAASGFIFDYYAMGWYRQAPGKERELVATISSSGGSTYYADSVKGRFTISRDYAKKTVYLQMNSLKPEDTAVYYCATGYTWVADSWEYYYWGQGTQVTVSS", "polyreactivity (PSR sort gate)": "low polyreactivity"}
{"sequence": "QVQLVESGGGLVQAGGSLRLSCAASGFIFEDYAMGWYRQAPGKERELVAAIRSNDDSTYYADSVKGRFTISRDNAKNTVYLQMNSLKPEDTAVYYCAAVRYVHFGYDYWGQGTQVTVSS", "polyreactivity (PSR sort gate)": "high polyreactivity"}
{"sequence": "QVQLVESGGGLVQAGGSLRLSCAASGFIFEGNAMGWYRQAPGKERELVAAISSSSGRTRYADSVKGRFTISRDNAKNTVYLQMNSLKPEDTAVYYCAARRQSTRPGFYYWGQGTQVTVSS", "polyreactivity (PSR sort gate)": "high polyreactivity"}
{"sequence": "QVQLVESGGGLVQAGGSLRLSCAASGFIFEPYAMGWYRQAPGKERELVAAISSGGSTYADSVKGRFTISRDNAKNTVYLQMNSLKPEDTAVYYCAVRGYWGQGTQVTVSS", "polyreactivity (PSR sort gate)": "low polyreactivity"}
{"sequence": "QVQLVESGGGLVQAGGSLRLSCAASGFIFEPYAMGWYRQAPGTERELVAAISATDDSTYYADSVKGRFTISRDNAKNTVYLQMNSLKPEDTAVYYCNATYYIIALPYDYWGQGTQVTVSS", "polyreactivity (PSR sort gate)": "low polyreactivity"}
{"sequence": "QVQLVESGGGLVQAGGSLRLSCAASGFIFERYTMGWYRQAPGKERELVAAISDSGGSTYYADSVKGRFTISRDNAKNTVYLQMNSLKPEDTAVYYCAAKFRNYRPSKYYYWGQGTQVTVSS", "polyreactivity (PSR sort gate)": "high polyreactivity"}
{"sequence": "QVQLVESGGGLVQAGGSLRLSCAASGFIFESNAMGWYIQAPGKERELVATITNGDRTYYADSVNGRFTISRDNAKNTVYLQMNSLKPEDTAVYYCNADFRAREVFLFDSWGQGTQVTVSS", "polyreactivity (PSR sort gate)": "low polyreactivity"}
{"sequence": "QVQLVESGGGLVQAGGSLRLSCAASGFIFFANAMGWYRQAPGKESELVADITWSGGTTYYADSVKGRFTISRDNAKNTVYLQMNSLKPEDTAVYYCAARGWASTWYYYWGQGTQVTVSS", "polyreactivity (PSR sort gate)": "high polyreactivity"}
{"sequence": "QVQLVESGGGLVQAGGSLRLSCAASGFIFFFYAMGWYRQAPGKERELVASISWNGGSTYYADSVKGRFTISRDNAKNTVYLQMNSLKPEYTAVYYCAVYSFRERVKAYRIYDYWGQGTHVTVSS", "polyreactivity (PSR sort gate)": "low polyreactivity"}
{"sequence": "QVQLVESGGGLVQAGGSLRLSCAASGFIFFRNAMGWYRQAPGKERELVAAISRSGGITYYADSVKGRFTISRDNAKNTVYLQMNSLKPEDTAVYYCNAAKASREQWTSFDYWGQGTQVTVSS", "polyreactivity (PSR sort gate)": "high polyreactivity"}
{"sequence": "QVQLVESGGGLVQAGGSLRLSCAASGFIFFRYAMGWYRQAPGKERELVATITSSGRTNYADSVKGRFTISRDNAKNTVYLQMNSLKPEDTAVYYCAAQRTGARRYRYDSWGQGTQVTVSS", "polyreactivity (PSR sort gate)": "high polyreactivity"}
{"sequence": "QVQLVESGGGLVQAGGSLRLSCAASGFIFFRYSMGWYRQAPGKERELVATINLGGGSTYADSVKGRFTISRDNAKNTVYLQMTSLKPEDTAVYYSAADVANSIYDYWGQGTLVTVSS", "polyreactivity (PSR sort gate)": "low polyreactivity"}
{"sequence": "QVQLVESGGGLVQAGGSLRLSCAASGFIFFYYAMGWYRQAPGKERELVAAITRGGSTNYADSVKGRFTISRDNAKNTVYLQMNRLKPEDTAVYYCNKQYGRRHYWGDDYYWGQGTQVTVSS", "polyreactivity (PSR sort gate)": "low polyreactivity"}
{"sequence": "QVQLVESGGGLVQAGGSLRLSCAASGFIFGDYAMGWYRQAPGKERELVAAISRSGGRTYYADSVKGRFTISRDNAKNTVYLQMNSLKPEDTAVYYCAKSSLNIYEYWGQGTQVTVSS", "polyreactivity (PSR sort gate)": "high polyreactivity"}
{"sequence": "QVQLVESGGGLVQAGGSLRLSCAASGFIFGDYAMGWYRQAPGTERELVAAIFSGGSTYYADSVKGRFTISRDNAKNTVYLQMNSLKPEDTAVYYCAARFARYDWSMYYWGQGTQVTVSS", "polyreactivity (PSR sort gate)": "low polyreactivity"}
{"sequence": "QVQLVESGGGLVQAGGSLRLSCAASGFIFGDYVMGRYRQAPGKEREVVAAITRRGGRTNYADSVKGRFTISRDNAKNTVFLQMNSLIPEDNAVFYCNAQSGVVADDYWGQGSQVTVSS", "polyreactivity (PSR sort gate)": "high polyreactivity"}
{"sequence": "QVQLVESGGGLVQAGGSLRLSCAASGFIFGEYAMGWYRQAPGKERELVAAITWSGGSTSYADSVKGRFTSSRDNAKNTVYLQMNSLKPEDTAVYYCSARWHVYWGGFYYWGQVTQVTVSS", "polyreactivity (PSR sort gate)": "high polyreactivity"}
{"sequence": "QVQLVESGGGLVQAGGSLRLSCAASGFIFGFYAMGWYRQAPGKERELVAAITSDGGTYYADSVKGRFTISRDNAKNTVYLQMNSLKPEDTAVYYCAARPPYTDSSPGERTYDYWGQGTQVTVSS", "polyreactivity (PSR sort gate)": "low polyreactivity"}
{"sequence": "QVQLVESGGGLVQAGGSLRLSCAASGFIFGFYAMGWYRQAPWKERELVAAITSDGGTYYADSVKGRFTISRDNAKNTVYLQMNSLKPEDTAVYYCAADVLYEVFSWYVGYDYWGQGTQVTVSS", "polyreactivity (PSR sort gate)": "low polyreactivity"}
{"sequence": "QVQLVESGGGLVQAGGSLRLSCAASGFIFGGNAMGWYRQAPGKERELVAAISSGGRTYYADSVKGRFTISRDNAKNTVYLQMNSLKPEDTAVYYCNAAEQKYSIYYAFDTGPYDYWGQGTQVTVSS", "polyreactivity (PSR sort gate)": "low polyreactivity"}
{"sequence": "QVQLVESGGGLVQAGGSLRLSCAASGFIFGGYALGWYRQAPGKERELVAAISWSGDNTYYADSVKGRFTISRDNAKNTVYLQMNSLKPEDTAVYYCAADSYGQEYDYWGQGTQVTVSS", "polyreactivity (PSR sort gate)": "low polyreactivity"}
{"sequence": "QVQLVESGGGLVQAGGSLRLSCAASGFIFGGYAMGWYRQAPGKERELVAAITRGGSTDYADSVKGRFTISRDNAKNTVYLQMNSLKPEDTAVYYCAKKTPGWGKFDYWGQGTQVTVSS", "polyreactivity (PSR sort gate)": "low polyreactivity"}
{"sequence": "QVQLVESGGGLVQAGGSLRLSCAASGFIFGHNTMGWYRPAPGKERELVAAIDGGGGTSYADSVKGRFTISRDNAKNTVYLQMNSLKPEDTAVYYCAAYVAKGPLEYYYHYPYDYWGQGTQVTVSS", "polyreactivity (PSR sort gate)": "low polyreactivity"}
{"sequence": "QVQLVESGGGLVQAGGSLRLSCAASGFIFGHYAMGWYRQAPGKERELVAAITRGGRTNYADSVKGRFTISRDNAKNTVYLQMNSLKPEDTAVYYCNALGKALYRSRFYYWGQGTQVTVSS", "polyreactivity (PSR sort gate)": "high polyreactivity"}
{"sequence": "QVQLVESGGGLVQAGGSLRLSCAASGFIFGINAMGWYRQAPWKERELVAAISTGDRTNYADSVKGRFTISRDNAKNTVYLQMNSLKPEDTAVYYCAKDWRRNRPYEWTYDYWGQGTQVTVSS", "polyreactivity (PSR sort gate)": "low polyreactivity"}
{"sequence": "QVQLVESGGGLVQAGGSLRLSCAASGFIFGKNALGWYRQAPGKERELVAVISWRGSSTYYADSVKGRFTISRDNAKNTVYLQMNSLKPEDTAVYYCAARYPARGTLYYWGQGTQVTVSS", "polyreactivity (PSR sort gate)": "low polyreactivity"}
{"sequence": "QVQLVESGGGLVQAGGSLRLSCAASGFIFGLNAMGWYRQPPGKERELVAVISGRGRTYYADSVKGRFTISRDNAKNTVYLQMNSLKPEDTAVYYCNAVSSYGYDYWGQGTQVTVSS", "polyreactivity (PSR sort gate)": "high polyreactivity"}
